The record followed here is publication PMC5294574, “Stoichiometry and structure of a lantibiotic maturation complex” (Scientific Reports, 2017).

Data set [1] concerns the target NisC (lantibiotic cyclase) (Lactococcus lactis) (UniProt Q03202). Description: SEC-MALS; 20 μM NisC or 20 μM NisB incubated with 200 μM unmodified prenisin peptide for 1 h at 25 °C; 50 mM HEPES-NaOH, pH 7.5, 500 mM NaCl.
Data set [2] concerns the target NisB (lantibiotic dehydratase) (Lactococcus lactis) (UniProt P20103). Described as above.
Data set [3] addresses NisC (lantibiotic cyclase) (Lactococcus lactis) (UniProt Q03202). Description: SEC-MALS; 20 μM NisB and 200 μM prenisin peptide variant kept constant, NisC varied from 10 μM to 160 μM; 50 mM HEPES-NaOH, pH 7.5, 500 mM NaCl. In general terms: In gel filtration, larger molecules generally elute earlier.
Data set [4] concerns the target NisB (lantibiotic dehydratase) (Lactococcus lactis) (UniProt P20103). Described as above.
Data set [5] concerns the molecule itself. Kind of data set: SEC-MALS; isolated NisB or NisC, 200 μL of a 20 μM solution; 50 mM HEPES-NaOH, pH 7.5, 500 mM NaCl.

NisC (lantibiotic cyclase) (Lactococcus lactis), sequence (Q03202 whole entry): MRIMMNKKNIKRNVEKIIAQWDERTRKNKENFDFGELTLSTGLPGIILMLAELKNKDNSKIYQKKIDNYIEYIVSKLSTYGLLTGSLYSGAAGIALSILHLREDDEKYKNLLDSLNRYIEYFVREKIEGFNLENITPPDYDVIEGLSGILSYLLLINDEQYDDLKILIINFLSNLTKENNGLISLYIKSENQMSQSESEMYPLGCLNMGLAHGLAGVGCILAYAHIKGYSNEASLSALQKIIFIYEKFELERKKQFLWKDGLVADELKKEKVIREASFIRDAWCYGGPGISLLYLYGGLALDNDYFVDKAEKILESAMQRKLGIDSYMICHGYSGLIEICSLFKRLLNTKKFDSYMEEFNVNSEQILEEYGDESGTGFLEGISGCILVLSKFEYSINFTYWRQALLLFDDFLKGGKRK

In data set [1], unmodified prenisin peptide had a stoichiometry N (per NisC monomer) of 1. Moreover, the stoichiometry N (per NisB dimer) in data set [2] came to 1. In addition, in data set [3], the stoichiometry N (prenisin per NisC monomer) is 1. In addition, the stoichiometry N (prenisin per NisB dimer) in data set [4] amounted to 1.

B1: NisB (lantibiotic dehydratase) (enzyme, Lactococcus lactis)
chain: MIKSSFKAQPFLVRNTILCPNDKRSFTEYTQVIETVSKNKVFLEQLLLANPKLYDVMQKYNAGLLKKKRVKKLFESIYKYYKRSYLRSTPFGLFSETSIGVFSKSSQYKLMGKTTKGIRLDTQWLIRLVHKMEVDFSKKLSFTRNNANYKFGDRVFQVYTINSSELEEVNIKYTNVYQIISEFCENDYQKYEDICETVTLCYGDEYRELSEQYLGSLIVNHYLISNLQKDLLSDFSWNTFLTKVEAIDEDKKYIIPLKKVQKFIQEYSEIEIGEGIEKLKEIYQEMSQILENDNYIQIDLISDSEINFDVKQKQQLEHLAEFLGNTTKSVRRTYLDDYKDKFIEKYGVDQEVQITELFDSTFGIGAPYNYNHPRNDFYESEPSTLYYSEEEREKYLSMYVEAVKNHNVINLDDLESHYQKMDLEKKSELQGLELFLNLAKEYEKDIFILGDIVGNNNLGGASGRFSALSPELTSYHRTIVDSVERENENKEITSCEIVFLPENIRHANVMHTSIMRRKVLPFFTSTSHNEVLLTNIYIGIDEKEKFYARDISTQEVLKFYITSMYNKTLFSNELRFLYEISLDDKFGNLPWELIYRDFDYIPRLVFDEIVISPAKWKIWGRDVNSKMTIRELIQSKEIPKEFYIVNGDNKVYLSQKNPLDMEILESAIKKSSKRKDFIELQEYFEDENIINKGEKGRVADVVVPFIRTRALGNEGRAFIREKRVSVERREKLPFNEWLYLKLYISINRQNEFLLSYLPDIQKIVANLGGNLFFLRYTDPKPHIRLRIKCSDLFLAYGSILEILKRSRKNRIMSTFDISIYDQEVERYGGFDTLELSEAIFCADSKIIPNLLTLIKDTNNDWKVDDVSILVNYLYLKCFFQNDNKKILNFLNLVSTKKVKENVNEKIEHYLKLLKVNNLGDQIFYDKNFKELKHAIKNLFLKMIAQDFELQKVYSIIDSIIHVHNNRLIGIERDKEKLIYYTLQRLFVSEEYMK
notes: Nisin dehydratase NisB of Lactococcus lactis; theoretical molecular weight of the dimer 236.6 kDa; Dimer by MALS-SEC and SAXS; also called dehydratase NisB; apo-NisB; source: L. lactis NZ9000, homologously expressed, purified (IMAC, SEC)
What is called stoichiometry N is the number of molecules, sites or subunits per partner or assembly. For the molecule B1, in data set [5], the “stoichiometry N” value stood at 2.
